Test results taken from patent publication US20030108958A1.

Target: AK155 receptor complex (IL-20R1 and IL-10R2), endogenous on human cell lines (human) (UniProt Q9UHF4)
Assay: cell-based or functional assay

Chain of AK155 receptor complex (IL-20R1 and IL-10R2), endogenous on human cell lines (human) (Q9UHF4 30-553 V259I/L382F limits assumed, chain 1 of 2): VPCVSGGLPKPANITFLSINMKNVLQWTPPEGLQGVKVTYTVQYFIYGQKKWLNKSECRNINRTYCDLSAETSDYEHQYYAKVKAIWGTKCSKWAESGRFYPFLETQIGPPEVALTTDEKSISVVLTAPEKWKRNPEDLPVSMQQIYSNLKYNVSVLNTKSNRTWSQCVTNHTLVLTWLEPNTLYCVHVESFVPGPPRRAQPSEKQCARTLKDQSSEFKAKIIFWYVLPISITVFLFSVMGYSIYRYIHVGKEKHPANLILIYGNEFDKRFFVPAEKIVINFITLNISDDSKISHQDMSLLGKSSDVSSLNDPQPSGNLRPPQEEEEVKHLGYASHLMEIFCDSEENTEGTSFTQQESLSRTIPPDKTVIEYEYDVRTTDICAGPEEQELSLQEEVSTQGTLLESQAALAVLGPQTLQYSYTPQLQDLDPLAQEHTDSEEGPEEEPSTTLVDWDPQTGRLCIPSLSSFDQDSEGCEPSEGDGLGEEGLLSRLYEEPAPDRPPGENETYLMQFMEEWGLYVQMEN
Chain of AK155 receptor complex (IL-20R1 and IL-10R2), endogenous on human cell lines (human) (chain, as listed by the source limits assumed, chain 2 of 2): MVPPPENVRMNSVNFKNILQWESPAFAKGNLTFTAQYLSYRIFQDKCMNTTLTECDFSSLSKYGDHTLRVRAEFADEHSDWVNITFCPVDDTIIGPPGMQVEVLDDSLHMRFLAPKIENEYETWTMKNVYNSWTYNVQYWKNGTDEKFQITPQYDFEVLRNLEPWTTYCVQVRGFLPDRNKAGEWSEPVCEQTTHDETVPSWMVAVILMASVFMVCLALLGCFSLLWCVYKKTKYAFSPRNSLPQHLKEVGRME

With “AK155 (from UniProt Q9NPH9 22-171) (ligand)” the IL-8 in supernatant of Colo-205 cells (ELISA), 24 h, with AK155 (without AK155: 552) was 670 pg/mL, the IL-8 in supernatant of Colo-205 cells (ELISA), 48 h, with AK155 (without AK155: 623) was 989 pg/mL and the IL-10 in supernatant of Colo-205 cells (ELISA), 24 h, with AK155 (without AK155: 61) was 112 pg/mL. It also gave an IL-10 in supernatant of Colo-205 cells (ELISA), 48 h, with AK155 (without AK155: 60) of 94 pg/mL.
